One block for each binder: values may come before it.
How the values were obtained:
[1] = biological target: T1, CR1 (soluble analyte of the reverse SPR experiment; construct not named) (human, UniProt P17927 42-1971); assay: SPR; reverse format: C3b or C4b immobilised by amine coupling (230 RU, only 20% active), CR1 as analyte; apparent affinities; data not shown; conditions: both partners purified
T1 construct: human complement receptor 1, soluble

plasma-derived human C3b = biological target: T2, plasma-derived human C3b (human, UniProt P01024 23-667; P01024 749-1663); assay: SPR; His-tagged CSL040 or HuCR1(1971) captured on a Ni-NTA chip to 75-100 RU, C3b or C4b injected as analyte; Biacore T200, 37 °C; 10 mM Hepes, 150 mM NaCl, 0.1% bovine serum albumin, pH 7.3; 1:1 model with a term for mass transport; conditions: both partners purified
T2 construct: human complement C3, beta chain; human complement C3b, alpha' chain (C3 alpha chain without C3a); source: bought: Complement Technology, plasma-derived
T2 sequence (P01024 23-667, chain 1 of 2): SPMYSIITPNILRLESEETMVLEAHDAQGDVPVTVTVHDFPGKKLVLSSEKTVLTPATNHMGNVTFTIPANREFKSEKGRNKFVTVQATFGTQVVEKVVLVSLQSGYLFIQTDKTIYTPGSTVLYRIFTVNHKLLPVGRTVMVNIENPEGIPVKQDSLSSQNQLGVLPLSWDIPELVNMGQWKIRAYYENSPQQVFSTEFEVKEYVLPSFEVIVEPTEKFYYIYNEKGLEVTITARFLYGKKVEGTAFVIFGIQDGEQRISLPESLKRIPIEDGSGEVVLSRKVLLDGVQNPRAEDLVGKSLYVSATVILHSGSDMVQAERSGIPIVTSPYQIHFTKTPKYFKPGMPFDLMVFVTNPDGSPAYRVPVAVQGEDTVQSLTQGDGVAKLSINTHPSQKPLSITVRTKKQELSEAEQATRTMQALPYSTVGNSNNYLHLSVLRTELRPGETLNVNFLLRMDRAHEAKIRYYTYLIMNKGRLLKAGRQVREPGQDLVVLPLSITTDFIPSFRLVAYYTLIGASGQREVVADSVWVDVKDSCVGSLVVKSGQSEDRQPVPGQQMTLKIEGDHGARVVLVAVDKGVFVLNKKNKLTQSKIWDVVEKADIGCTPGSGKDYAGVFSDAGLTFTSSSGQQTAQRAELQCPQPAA
T2 sequence (P01024 749-1663, chain 2 of 2): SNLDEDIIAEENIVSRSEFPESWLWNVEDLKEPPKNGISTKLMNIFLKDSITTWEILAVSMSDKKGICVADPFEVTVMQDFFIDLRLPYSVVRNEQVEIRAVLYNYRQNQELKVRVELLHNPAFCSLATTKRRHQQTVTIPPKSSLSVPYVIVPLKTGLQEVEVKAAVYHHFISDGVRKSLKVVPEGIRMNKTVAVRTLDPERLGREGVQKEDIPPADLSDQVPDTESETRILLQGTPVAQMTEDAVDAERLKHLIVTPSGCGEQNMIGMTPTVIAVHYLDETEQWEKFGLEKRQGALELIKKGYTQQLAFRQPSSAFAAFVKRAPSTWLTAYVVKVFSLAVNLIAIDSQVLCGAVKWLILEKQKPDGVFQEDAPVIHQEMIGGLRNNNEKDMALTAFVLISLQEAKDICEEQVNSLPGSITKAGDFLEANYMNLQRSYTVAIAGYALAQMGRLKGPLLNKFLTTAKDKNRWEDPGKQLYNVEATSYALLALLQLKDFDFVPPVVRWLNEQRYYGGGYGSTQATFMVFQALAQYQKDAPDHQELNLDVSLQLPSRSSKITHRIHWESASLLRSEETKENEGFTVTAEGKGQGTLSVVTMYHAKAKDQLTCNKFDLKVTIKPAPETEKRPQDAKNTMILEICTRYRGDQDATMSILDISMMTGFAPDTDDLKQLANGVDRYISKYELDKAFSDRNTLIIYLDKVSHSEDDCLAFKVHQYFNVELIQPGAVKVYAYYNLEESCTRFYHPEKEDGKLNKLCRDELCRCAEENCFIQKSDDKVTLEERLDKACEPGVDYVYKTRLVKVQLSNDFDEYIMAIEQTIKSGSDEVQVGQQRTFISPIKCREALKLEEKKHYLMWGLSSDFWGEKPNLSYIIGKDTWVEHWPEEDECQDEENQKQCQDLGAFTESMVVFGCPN

T1 sequence (P17927 42-1971): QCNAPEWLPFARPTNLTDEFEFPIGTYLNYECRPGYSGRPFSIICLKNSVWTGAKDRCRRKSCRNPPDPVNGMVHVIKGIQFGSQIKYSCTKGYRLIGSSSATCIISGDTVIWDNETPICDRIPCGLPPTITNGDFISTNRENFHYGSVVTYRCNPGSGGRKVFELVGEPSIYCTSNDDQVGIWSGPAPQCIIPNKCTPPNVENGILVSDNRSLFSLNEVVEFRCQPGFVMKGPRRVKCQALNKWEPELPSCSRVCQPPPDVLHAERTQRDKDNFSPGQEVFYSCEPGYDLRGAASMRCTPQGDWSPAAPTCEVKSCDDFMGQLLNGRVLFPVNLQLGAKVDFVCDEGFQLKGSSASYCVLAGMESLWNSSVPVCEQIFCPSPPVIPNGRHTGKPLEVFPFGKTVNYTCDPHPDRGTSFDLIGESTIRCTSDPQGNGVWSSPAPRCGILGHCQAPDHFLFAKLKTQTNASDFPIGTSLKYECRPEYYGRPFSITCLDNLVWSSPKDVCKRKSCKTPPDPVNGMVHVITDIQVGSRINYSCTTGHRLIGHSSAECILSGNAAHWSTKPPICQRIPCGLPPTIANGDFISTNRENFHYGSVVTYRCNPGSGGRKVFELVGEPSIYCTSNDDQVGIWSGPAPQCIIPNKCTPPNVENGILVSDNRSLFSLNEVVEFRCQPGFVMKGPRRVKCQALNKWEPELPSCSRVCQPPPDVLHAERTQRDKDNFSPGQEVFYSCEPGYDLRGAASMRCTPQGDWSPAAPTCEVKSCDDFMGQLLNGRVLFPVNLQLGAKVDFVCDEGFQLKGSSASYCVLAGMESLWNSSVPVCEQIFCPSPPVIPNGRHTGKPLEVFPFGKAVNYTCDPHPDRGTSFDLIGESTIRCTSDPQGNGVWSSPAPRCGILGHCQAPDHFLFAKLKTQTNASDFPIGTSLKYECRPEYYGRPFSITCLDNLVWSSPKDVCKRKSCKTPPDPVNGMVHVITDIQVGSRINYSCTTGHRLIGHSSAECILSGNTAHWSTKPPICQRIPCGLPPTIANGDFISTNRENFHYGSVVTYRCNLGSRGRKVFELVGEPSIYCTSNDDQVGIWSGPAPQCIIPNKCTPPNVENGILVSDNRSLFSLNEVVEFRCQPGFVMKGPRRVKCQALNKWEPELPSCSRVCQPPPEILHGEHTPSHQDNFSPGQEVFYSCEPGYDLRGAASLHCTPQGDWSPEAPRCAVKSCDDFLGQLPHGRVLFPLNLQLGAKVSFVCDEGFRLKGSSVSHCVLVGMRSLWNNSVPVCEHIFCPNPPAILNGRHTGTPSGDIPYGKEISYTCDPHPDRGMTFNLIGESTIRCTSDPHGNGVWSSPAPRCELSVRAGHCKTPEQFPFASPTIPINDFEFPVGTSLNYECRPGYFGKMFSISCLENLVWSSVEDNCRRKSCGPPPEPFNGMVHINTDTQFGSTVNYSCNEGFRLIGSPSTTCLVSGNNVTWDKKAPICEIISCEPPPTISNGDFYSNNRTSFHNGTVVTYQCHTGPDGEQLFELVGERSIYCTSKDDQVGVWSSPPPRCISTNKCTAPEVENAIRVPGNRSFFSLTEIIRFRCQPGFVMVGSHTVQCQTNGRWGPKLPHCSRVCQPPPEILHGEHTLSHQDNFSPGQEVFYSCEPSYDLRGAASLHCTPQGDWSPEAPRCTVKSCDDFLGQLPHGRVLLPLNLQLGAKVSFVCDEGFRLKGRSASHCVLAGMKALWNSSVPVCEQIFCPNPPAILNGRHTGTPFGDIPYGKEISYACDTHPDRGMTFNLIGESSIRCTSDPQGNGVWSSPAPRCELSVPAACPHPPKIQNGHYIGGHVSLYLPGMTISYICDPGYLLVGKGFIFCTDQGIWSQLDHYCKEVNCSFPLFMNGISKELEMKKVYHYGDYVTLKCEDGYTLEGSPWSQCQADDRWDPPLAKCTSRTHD

Kd [1]: ~4900 nM
B1: plasma-derived human C4b (ligand)
chain 1: KPRLLLFSPSVVHLGVPLSVGVQLQDVPRGQVVKGSVFLRNPSRNNVPCSPKVDFTLSSERDFALLSLQVPLKDAKSCGLHQLLRGPEVQLVAHSPWLKDSLSRTTNIQGINLLFSSRRGHLFLQTDQPIYNPGQRVRYRVFALDQKMRPSTDTITVMVENSHGLRVRKKEVYMPSSIFQDDFVIPDISEPGTWKISARFSDGLESNSSTQFEVKKYVLPNFEVKITPGKPYILTVPGHLDEMQLDIQARYIYGKPVQGVAYVRFGLLDEDGKKTFFRGLESQTKLVNGQSHISLSKAEFQDALEKLNMGITDLQGLRLYVAAAIIESPGGEMEEAELTSWYFVSSPFSLDLSKTKRHLVPGAPFLLQALVREMSGSPASGIPVKVSATVSSPGSVPEVQDIQQNTDGSGQVSIPIIIPQTISELQLSVSAGSPHPAIARLTVAAPPSGGPGFLSIERPDSRPPRVGDTLNLNLRAVGSGATFSHYYYMILSRGQIVFMNREPKRTLTSVSVFVDHHLAPSFYFVAFYYHGDHPVANSLRVDVQAGACEGKLELSVDGAKQYRNGESVKLHLETDSLALVALGALDTALYAAGSKSHKPLNMGKVFEAMNSYDLGCGPGGGDSALQVFQAAGLAFSDGDQWTLSRKRLSCPKEKTT
chain 2: ALEILQEEDLIDEDDIPVRSFFPENWLWRVETVDRFQILTLWLPDSLTTWEIHGLSLSKTKGLCVATPVQLRVFREFHLHLRLPMSVRRFEQLELRPVLYNYLDKNLTVSVHVSPVEGLCLAGGGGLAQQVLVPAGSARPVAFSVVPTAAAAVSLKVVARGSFEFPVGDAVSKVLQIEKEGAIHREELVYELNPLDHRGRTLEIPGNSDPNMIPDGDFNSYVRVTASDPLDTLGSEGALSPGGVASLLRLPRGCGEQTMIYLAPTLAASRYLDKTEQWSTLPPETKDHAVDLIQKGYMRIQQFRKADGSYAAWLSRDSSTWLTAFVLKVLSLAQEQVGGSPEKLQETSNWLLSQQQADGSFQDPCPVLDRSMQGGLVGNDETVALTAFVTIALHHGLAVFQDEGAEPLKQRVEASISKANSFLGEKASAGLLGAHAAAITAYALTLTKAPVDLLGVAHNNLMAMAQETGDNLYWGSVTGSQSNAVSPTPAPRNPSDPMPQAPALWIETTAYALLHLLLHEGKAEMADQASAWLTRQGSFQGGFRSTQDTVIALDALSAYWIASHTTEERGLNVTLSSTGRNGFKSHALQLNNRQIRGLEEELQFSLGSKINVKVGGNSKGTLKVLRTYNVLDMKNTTCQDLQIEVTVKGHVEYTMEANEDYEDYEYDELPAKDDPDAPLQPVTPLQLFEG
chain 3: EAPKVVEEQESRVHYTVCIWRNGKVGLSGMAIADVTLLSGFHALRADLEKLTSLSDRYVSHFETEGPHVLLYFDSVPTSRECVGFEAVQEVPVGLVQPASATLYDYYNPERRCSVFYGAPSKSRLLATLCSAEVCQCAEGKCPRQRRALERGLQDEDGYRMKFACYYPRVEYGFQVKVLREDSRAAFRLFETKITQVLHFTKDVKAAANQMRNFLVRASCRLRLEPGKEYLIMGLDGATYDLEGHPQYLLDSNSWIEEMPSERLCRSTRQRAACAQLNDFLQEYGTQGCQV
notes: human complement C4, beta chain; human complement C4b, alpha' chain (C4 alpha chain without C4a); human complement C4, gamma chain; Plasma-derived C4b is likely a mixture of C4A and C4B forms; source: bought: Complement Technology, plasma-derived; copies: + +

Kd (plasma-derived human C3b): 265 nM
koff (plasma-derived human C3b): 0.00654 s⁻¹
kon (plasma-derived human C3b): 24800 M⁻¹ s⁻¹
B2: HuCR1(1392)/CSL040, soluble human complement receptor 1 truncated at amino acid 1392 (LHR-A, LHR-B and LHR-C) (receptor)
chain: not shown
notes: signal peptide in the construct; human complement receptor 1 (HuCR1, CD35), endogenous signal peptide, ends at amino acid 1392 (LHR-A, LHR-B, LHR-C; lacks LHR-D); amino acid numbering based on Met + 1; cDNA GenBank NP_000564, codon optimised; N-glycosylated, highly sialylated; A version without the His-tag was also made, but the SPR used the His-tagged protein; also called LHR-ABC; not shown: …

From paper PMC7948397, “A novel soluble complement receptor 1 fragment with enhanced therapeutic potential” (The Journal of Biological Chemistry, 2020)
